Source: US7772181B2, “Personal care compositions comprising modified variant Bowman Birk Protease Inhibitors” (Danisco US Inc., priority 2008, dated 2010)
Changes are numbered by the printed parent chain. Numbers in names are those of the source. Values belong to the molecule of their own block, whether it stands above or below them.

Tests used:
[1] = target: T1, VegF (UniProt P15692); assay: BioVeris electrochemiluminescence competition binding assay, VEGF; conditions: for competition with Anti-VegF antibody for binding to VegF (ECL signal): labeled Anti-VegF antibody, biotinylated VegF
T1 sequence (P15692 207-395): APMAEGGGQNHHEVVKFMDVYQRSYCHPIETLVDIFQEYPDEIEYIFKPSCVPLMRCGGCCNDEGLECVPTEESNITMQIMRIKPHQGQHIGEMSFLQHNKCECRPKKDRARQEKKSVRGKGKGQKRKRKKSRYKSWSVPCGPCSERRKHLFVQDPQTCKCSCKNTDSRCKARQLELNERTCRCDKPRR
Procedure: Briefly, after cleavage, the pH of the cleaved sample was adjusted to 5.5, the sample was then loaded onto the column (equilibrated with 25 mM MES pH 5.5). The free 2BBIck81 was washed through the column using 25 mM sodium acetate pH 5.0 while the BCE103 catalytic core remained bound to the resin. The 2BBIck81 fraction was concentrated by ultrafiltration and analyzed using an electrochemiluminescence (ECL) based binding assay (BioVeris). The Anti-VegF antibody (Santa Cruz) and VegF (PeproTech) were labeled with the electrochemiluminescent dye and biotin, respectively, as described by the manufacturer (BioVeris). All materials were in Dulbecco's PBS (Mediatech) supplemented with 0.1% TWEEN®-80. An initial dilution series of Anti-VegF antibody (125, 250 and 500 ng/ml) and VegF (100, 150, 200 and 250 ng/ml) were tested in the binding assay to determine the concentrations of each that would give a robust ECL signal.
For testing 2BBIck81 binding, 50 μL of 500 ng/ml ECL labeled Anti-VegF antibody, 50 μL of 250 ng/ml biotinylated VegF and 100 μL 2BBIck81 (series of 12.5, 15, 31.25, 62.5, 125, 250 or 500 ng/ml) were incubated at room temperature for 2 h with shaking. Then, 50 μL of 0.2 mg/ml streptavidin coated beads were added and the reaction was incubated at room temperature for 30 minutes. The ECL signal was measured using a BioVeris M8/384 Analyzer as described by the manufacturer (BioVeris).
(§1) The resulting vectors were used to transform B. subtilis BG6006 host cells. Cultures were grown in 500 ml of MBD medium and the BBI species were purified essentially as described above and by Vogtentanz et al., 2007 (Protein Expr Purif 55:40-52 [2007]). BioVeris binding assays were performed essentially as outlined in Example 5 and by the manufacturer. Binding of the modified variant BBIs to their respective target proteins was measured using a BioVeris® binding assay, which is a competition assay that determines the binding of the modified variant BBIs to its target protein (e.g. VEGF, FGF5, TGFβ and TNFα) in the presence or absence of a labeled competitor. The competitor can be a labeled monoclonal antibody raised against the target protein or a labeled native receptor of the target protein. The electrochemiluminescent binding assays were performed essentially as described in Example 5. The apparent IC50s were determined from binding data by determining the concentration of the BBI species needed to reduce the BioVeris signal by one half. BBI scaffolds without the target binding peptide in the chymotrypsin inhibitory loop were used as negative controls.

[2] = target: T2, bovine pancreatic trypsin (Bos taurus, UniProt P00760); assay: Trypsin inhibitory assay (BBI activity); assay type: biochemical
T2 construct: purchased Worthington (Worthington Biochemical Corp.)
T2 sequence (P00760 24-246): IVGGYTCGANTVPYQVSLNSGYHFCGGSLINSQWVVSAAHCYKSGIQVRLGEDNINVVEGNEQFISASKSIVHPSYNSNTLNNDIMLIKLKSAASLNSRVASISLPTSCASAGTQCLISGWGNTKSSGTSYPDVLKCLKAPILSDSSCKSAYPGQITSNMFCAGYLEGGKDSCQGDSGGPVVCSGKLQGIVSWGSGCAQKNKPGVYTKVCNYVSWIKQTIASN
Procedure: (§2) Trypsin inhibitory assays were performed in Assay Buffer to determine the BBI activity. Specifically, a standard curve was generated by making eleven 1:1 serial dilutions (100 μL BBI+100 μL Assay Buffer) of a 2 μg/mL standard BBI solution. The BBI standard was purified from a 1 mg/ml Trypsin-Chymotrypsin Inhibitor (Sigma Cat. #T-9777) solution in 20 mM MES pH 6.0 using a hydrophobic interaction column (POROS HP2, Phenyl column, Applied Biosystems). The column was equilibrated with 20 mM MES pH 6.0, loaded with 5 mg of the inhibitor, washed with the equilibration buffer, and then the BBI was eluted with water. Unknown BBI samples to be tested in the inhibitory assay were diluted as necessary, so that two or more data points would fall within the standard curve (usually 1:10, 1:100, 1:200, 1:1000, 1:2000 sample dilutions were tested and then the dilutions fine tuned if necessary). […] After the incubation, 100 μL of the 0.5 mg/ml trypsin substrate (diluted in Assay Buffer from a 100 mg/ml solution in DMSO), Suc-AAPR-pNA (succinyl-Ala-Ala-Pro-Arg-para-nitroanilide, Bachem), was added, mixed and the OD (A405) was monitored for 15 min, with 1 time point recorded every 12 sec using a Spectra Max 250 (Molecular Devices). […] The BBI concentration of the unknown samples was calculated from the standard curve. Alternatively, the BBI activity was measured using the same protocol but by determining bovine pancreatic chymotrypsin (Worthington) inhibition (chymotrypsin was used at the same concentration as trypsin and chymotrypsin activity was measured by adding 100 μL of a 0.4 mg/ml chymotrypsin substrate, succinyl-Ala-Ala-Pro-Phe-para-nitroanilide, Bachem).
The relative concentration of active control and modified BBIt-AV's was determined by a trypsin inhibitory assay using purified sBBI as a standard as described above. For some samples, the active BBI concentration was measured by residual trypsin activity according to the method described by Flecker (Flecker, P. FEBS Lett. 252:153-157 [1989]; Vogtentanz et al. supra). […]

[3] = target: T3, bovine pancreatic chymotrypsin (Bos taurus, UniProt P00766); assay: Chymotrypsin inhibition assay (BBI activity); assay type: biochemical; conditions: BCE103 fusion protein in cell free broth
T3 construct: purchased Worthington
Procedure: as §2, with “water.” for “water. Unknown BBI samples to be tested in the inhibitory assay were diluted as necessary, so that two or more data points would fall within the standard curve (usually 1:10, 1:100, 1:200, 1:1000, 1:2000 sample dilutions were tested and then the dilutions fine tuned if necessary).”

[4] = system: human CD4+ T cells; assay: i-mune assay for peptide T-cell epitopes; assay type: cell-based
Procedure: The i-mune® assay was performed for the identification of peptide T-cell epitopes in wild type BBI using naïve human T-cells, as described in WO9953038A2 and Stickler et al, 2000 (J. Immunotherapy, 23(6), 654-660, [2000]). Peptides for use in the assay were prepared based on the wild-type BBI amino acid sequence […] CYEPCKPSEDDKEN (SEQ ID NO:13). From the full length amino acid sequence of BBI, 15mer peptides were synthetically prepared by Mimotopes US West (San Diego, Calif.). Each 15mer peptide sequence was designed to overlap with the previous and subsequent 15mer, except for three residues. The 20 peptides used to screen for T-cell epitopes, corresponding to wild type BBI sequence, were:
Briefly, human CD4+ T cells were co-cultured with dendritic cells and peptide for the intact peptide set, using the peptides shown in Figure Y. Cytokine responses were averaged within each experiment as described in Strickler et al, 2000 and a response to a peptide was tabulated as positive if the stimulation index (SI) was greater than 2.95 (FIG. 18A). SI values for each donor were compiled for each peptide set and the percent of donors responsive to each peptide is shown in FIG. 18B. The percent background response, 2.89%, was determined as the average percent responders over all the peptides in the set. The standard deviation for this dataset was 2.21%. Major epitopes are defined as having a percentage response that is 3-fold or more than the background.

[5] = target: T2, bovine pancreatic trypsin; assay: Shake flask screen: trypsin inhibition after growth, 2-mercaptoethanol activation and acid/heat treatment; assay type: biochemical; conditions: when not activated
[6] = target: TGFβ (Homo sapiens, UniProt P01137); assay: BioVeris competition binding assay, TGFβ; conditions: Target protein TGFβ1, concentration reducing BioVeris signal by one half, read-out: BioVeris Binding (apparent IC50)
Sequence of TGFβ (P01137 279-390): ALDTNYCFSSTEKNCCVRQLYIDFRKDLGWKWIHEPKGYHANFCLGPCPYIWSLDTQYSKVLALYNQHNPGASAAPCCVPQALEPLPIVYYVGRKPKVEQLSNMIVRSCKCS
Procedure: as §1

B1: BBI-AV: BBI with VEGF binding peptide CK37281 replacing the chymotrypsin inhibitory loop, SEQ ID NO:186 (protein)
chain: DDESSKPCCDQCACTKSNPPQCRCSDMRLNSCHSACKSCACYNLYGWTCFCVDITDFCYEPCKPSEDDKEN
modifications: synthetic BBI-AV sequence
competition for VegF binding compared with synthesized CK37281 peptide [1]: better than the synthesized CK37281 peptide itself | competition with Anti-VegF antibody for binding to VegF (ECL signal) [1]: shown to compete | competition with Anti-VegF antibody for binding to VegF (ECL signal) ([1]; listed as 2BBIck81): competed with the Anti-VegF antibody for binding to VegF at micromolar concentrations | activity of the BBI (trypsin inhibition) relative to fusions to the wild-type BBI ([2]; BCE103 fusion protein in cell free broth): about two fold less

B2: 1 BBIck81: BBI with the CK37281 peptide in the trypsin loop (protein)
chain: DDESSKPCCDQCACYNLYGWTCRCSDMRLNSCHSACKSCICALSYPAQCFCVDITDFCYEPCKPSEDDKEN
competition with Anti-VegF antibody for binding to VegF (ECL signal) [1]: also competed with the Anti-VegF antibody | activity of the BBI (chymotrypsin inhibition) relative to fusions to the wild-type BBI [3]: about two fold less

B4: D1C: BBIt-AV (SEQ ID NO:187) with single substitution D1C (protein)
chain: CDESSKPCCDQCACTKSNPPQCRCSDMRLNSCHSACKSCACYNLYGWTCFCVDITDFCYEPCKPSE
modifications: synthetic BBIt-AV sequence
BBIt-AV yield after acid/heat treatment relative to unmodified BBIt-AV [5]: improved yields after acid/heat treatment

Further lines, with some results ahead:

activated trypsin inhibitory activity, % of expected based on BCE103 cellulase concentration ([2]; 2 mM BME and 0.2 mM GSSG, about 24 h, room temperature): 70-100% | activity of the BBI after growth versus expected from BCE103 cellulase activity ([2]; cell free supernatants, trypsin or chymotrypsin inhibition, before activation): 5-20 times lower
B3: BBI: soybean Bowman-Birk protease inhibitor from Glycine max, major mature form, SEQ ID NO:13 (protein)
chain: B1 chain with A40I, Y42A, N43L, L44S, G46P, W47A, T48Q
modifications: Glycine max
immunogenicity potential in humans [4]: low immunogenicity potential | percent background response (average percent responders over all the peptides) ([4]; 20 overlapping 15mer peptides, 71 donors): 2.89% | peptide T-cell epitope responses ([4]; stimulation index > 2.95 positive, major epitope 3-fold or more over background): none of the peptide responses were significant

IC50 [6]: 10 to 50 µM
B5: PEN3-Q-BBIt-TGF-A40L-F50N (SEQ ID NO: 677) (protein)
chain: PSESSKPCCDQCACTKSIPPQCRCTDVRLNSCHSACSSCACYNLYGWTCVCVDMKDFCYEPCK
modifications: synthetic BBdb-AV sequence
